Data as given in FireProtDB (doi:10.1021/bi010636i).
Values joined by “and” are separate entries in the source; they are usually repeats but may differ in a detail not shown here. Equal entries are not always repeated.

B1: Cytochrome b5 type B, P04166 (parent)
chain: MATPEASGSGRNGQGSDPAVTYYRLEEVAKRNTAEETWMVIHGRVYDITRFLSEHPGGEEVLLEQAGADATESFEDVGHSPDAREMLKQYYIGDVHPNDLKPKDGDKDPSKNNSCQSSWAYWIVPIVGAILIGFLYRHFWADSKSS

Variants of: B1
Conditions: Rattus norvegicus, pH 7, CD, potassium phosphate buffer, transition: 2, reversible: yes, structure 1B5M, whole UniProt chain shown; for denaturant midpoint (higher = more stable): 25 °C, GdnHCl; for Tm / change of melting temperature, mutant - wild type (higher = more stable): Thermal

Row | Variant | denaturant midpoint (higher = more stable) | Tm | change of melting temperature, mutant - wild type (higher = more stable)
1 | A34S I48L L63R | 3.34 M and 3.33 M | 81.8 °C | -5.2 °C
2 | A34S L63R | 3.56 M and 3.52 M | 83.3 °C | -3.7 °C
3 | I48L | 3.93 M and 3.91 M | 85.7 °C | -1.3 °C
